According to publication PMC9962925, “PKD autoinhibition in trans regulates activation loop autophosphorylation in cis” (Proceedings of the National Academy of Sciences of the …, 2023):
Blank lines part the entries; values can stand above or below the molecule they belong to.

Columns and labels:
[1] = biological target: PKD1 kinase domain construct, unphosphorylated (PKD1^KD 0P), wild type (human) (UniProt Q15139); assay: SEC-MALS; 60 uL of purified protein at 2 mg/mL on an S200 10/300 column, room temperature, 20 mM HEPES pH 7.4, 150 mM KCl, 1 mM EDTA, 1 mM TCEP, 1% glycerol (Fig. 1H)
[2] = biological target: PKD1 kinase domain construct, unphosphorylated (PKD1^KD 0P), wild type (human) (UniProt Q15139); assay: SEC; analytical size exclusion chromatography of purified proteins (Fig. 1C); elution volumes calibrated to monomer and dimer masses by SEC-MALS
[3] = biological target: PKD1 ubiquitin-like dimerization domain (PKD1^ULD) (human); assay: as above
[4] = biological target: ULD-PKD1^KD chimera with (Gly)5 linker (human)
[5] = biological target: ULD-PKD1^KD chimera with (Gly)10 linker (human)
[6] = biological target: the molecule itself; assay: SEC; analytical size exclusion chromatography of purified proteins (Fig. 1C); elution volumes calibrated to monomer and dimer masses by SEC-MALS

stoichiometry N [1]: 2 | stoichiometry N [2]: 2
Molecule: PKD1 kinase domain construct, unphosphorylated (PKD1^KD 0P), wild type (from UniProt Q15139 570-890) (domain or fragment)

stoichiometry N [3]: 2
Molecule: PKD1 ubiquitin-like dimerization domain (PKD1^ULD) (domain or fragment)

initial catalytic rate of Syntide-2 phosphorylation at 50 nM, against PKD1^KD alone [4]: 5 fold
Molecule: ULD-PKD1^KD chimera with (Gly)5 linker

initial catalytic rate of Syntide-2 phosphorylation at 50 nM, against PKD1^KD alone [5]: 5 fold
Molecule: ULD-PKD1^KD chimera with (Gly)10 linker

B1: PKD1^KD S738E (domain or fragment, human, UniProt Q15139 570-890, looked up)
chain: QIQENVDISTVYQIFPDEVLGSGQFGIVYGGKHRKTGRDVAIKIIDKLRFPTKQESQLRNEVAILQNLHHPGVVNLECMFETPERVFVVMEKLHGDMLEMILSSEKGRLPEHITKFLITQILVALRHLHFKNIVHCDLKPENVLLASADPFPQVKLCDFGFARIIGEKEFRRSVVGTPAYLAPEVLRNKGYNRSLDMWSVGVIIYVSLSGTFPFNEDEDIHDQIQNAAFMYPPNPWKEISHEAIDLINNLLQVKMRKRYSVDKTLSHPWLQDYQTWLDLRELECKIGERYITHESDDLRWEKYAGEQGLQYPTHLINPSAS
notes: Protein kinase D1 (PKD1), human, kinase domain construct, residues 570 to 890; also called single glutamate substitution of S738; source: recombinant, purified to homogeneity
binding result [6]: binds

B2: PKD1^KD 2A (S738A/S742A) (domain or fragment, human, UniProt Q15139 570-890, looked up)
chain: QIQENVDISTVYQIFPDEVLGSGQFGIVYGGKHRKTGRDVAIKIIDKLRFPTKQESQLRNEVAILQNLHHPGVVNLECMFETPERVFVVMEKLHGDMLEMILSSEKGRLPEHITKFLITQILVALRHLHFKNIVHCDLKPENVLLASADPFPQVKLCDFGFARIIGEKAFRRAVVGTPAYLAPEVLRNKGYNRSLDMWSVGVIIYVSLSGTFPFNEDEDIHDQIQNAAFMYPPNPWKEISHEAIDLINNLLQVKMRKRYSVDKTLSHPWLQDYQTWLDLRELECKIGERYITHESDDLRWEKYAGEQGLQYPTHLINPSAS
notes: the sites are S738 and S742; source: recombinant, purified to homogeneity
stoichiometry N [6]: 2

B3: PKD1^KD S742E (domain or fragment, human, UniProt Q15139 570-890, looked up)
chain: QIQENVDISTVYQIFPDEVLGSGQFGIVYGGKHRKTGRDVAIKIIDKLRFPTKQESQLRNEVAILQNLHHPGVVNLECMFETPERVFVVMEKLHGDMLEMILSSEKGRLPEHITKFLITQILVALRHLHFKNIVHCDLKPENVLLASADPFPQVKLCDFGFARIIGEKSFRREVVGTPAYLAPEVLRNKGYNRSLDMWSVGVIIYVSLSGTFPFNEDEDIHDQIQNAAFMYPPNPWKEISHEAIDLINNLLQVKMRKRYSVDKTLSHPWLQDYQTWLDLRELECKIGERYITHESDDLRWEKYAGEQGLQYPTHLINPSAS
notes: Protein kinase D1 (PKD1), human, kinase domain construct, residues 570 to 890; also called single glutamate substitution of S742; source: recombinant, purified to homogeneity
binding result [6]: binds
